Assay results taken from the DeepSol protein solubility set.

Assay: soluble on expression in E. coli; label from the status in PepcDB or PDB records

| Sequence | soluble on expression in E. coli |
| --- | --- |
| MTTHLNPPQEAPYMKNATFYLLDNDTTVNGLSAVEQLVCEIAAERWRAGKRVLIACEDEKQAIRLDEALWARPAESFVPHNLAGEGPRGGAPVEIAWPQKRNSSPRDILISLRTSFADFATAFTEVVDFVPYEETLKQLARERYKAYRVAGFNLNTATWK | not soluble |
| VNYRTPAEIMSVANELLTQINPDIAPAMAIRESGREVVNLPLDADLSAVMDSLREEDSQRTIAVISSRRHHESDFYLVDDIKGLEFDHVIVVDPAGIVEESPQGLQDLYVAVTRATQSLTILGE | not soluble |
| CPECDEPLHYIRDAVSEKLEYIPAHFVVNRYVRPQYSCPCCQKVFSGEMPAHILPKSAVEPSVIAQVIINKYGDHLPLYRQQQVFARSDVGLPVSSMADMVGAAGAALSPLAALLHRELINRPVVHADETTLKILNTKKGGKSCSGYLWAYVSGERTGPSVVCFDCRTGRSHEYPENWLQGWGGTLVVDGHKAYRTLANKV | not soluble |
| MSLKSRTIKSIEVFPVQLPVKRTFNFASGSAGAQGSLAKLVFVKVTDSEGCHGWGEGRAHPQWSYETPESLVSTLRKHLAPAVIGLDIWDRRNLHARMHAAVGRGPSTGMPVAKAALDIAVHDLCARASGLPLRAFLGGSSEKTEVALSWTVAVKSPAEVGDDVAAGRSEGFAHFNFKVGVSLKQDEELVRAARTHVPADSFLWMDANQGVEFTRAVRLARVLEEHAVNVLEQPLAADQMHQMRHLRSQTAIPLAVDESSVSPGDYFAHAAEGLVDYFVLKLTRTGGIWPTLLQLGTATSAGHGLLVSGLSDSMVTKLAACQVAAAFGFTGPAALNGSQFLDDSVLFPTKSAVERRGIVHLDTSPGLGIEPDENALRAHAWKTDCVEGHHHHHH | soluble |
| SNAMRKDETSNTSPDISVAQPASALRYHLRPPRRNDGAAIHQLVSECPPLDLNSLYAYLLLCEHHAHTCVVAESPGGRIDGFVSAYLLPTRPDVLFVWQVAVHSRARGHRLGRAMLGHILERQECRHVRHLETTVGPDNQASRRTFAGLAGERGAHVSEQPFFDRQAFGGADHDDEMLLRIGPFTHPPH | soluble |
| ASGSDENDVVIIGGGPGGYVAAIKAAQLGFKTTCIEKRGALGGTCLNVGCIPSKALLHSSHMYHEAKHSFANHGVKVSNVEIDLAAMMGQKDKAVSNLTRGIEGLFKKNKVTYVKGYGKFVSPSEISVDTIEGENTVVKGKHIIIATGSDVKSLPGVTIDEKKIVSSTGALALSEIPKKLVVIGAGYIGLEMGSVWGRIGSEVTVVEFASEIVPTMDAEIRKQFQRSLEKQGMKFKLKTKVVGVDTSGDGVKLTVEPSAGGEQTIIEADVVLVSAGRTPFTSGLNLDKIGVETDKLGRILVNERFSTNVSGVYAIGDVIPGPMLAHKAEEDGVACVEYLAGKVGHVDYDKVPGVVYTNPEVASVGKTEEQVKETGVEYRVGKFPFMANSRAKAIDNAEGLVKIIAEKETDKILGVHIMAPNAGELIHEAAIALQYDASSEDIARVCHAHPTMSEAIKEAAMATYDKPIHI | soluble |
| MSLKKKLLLMVSVLAVLFVAAACSSKPEAKINTEPYSDRQTMLGTYVQIRIYDDGKEDVLPKAFARVKELGDKITVNQPGSEIDEINQEAGVKPVKVSDDLYPLLKKAYEYSKDSRGGFDMAIGPITSMWHIGFDDARKPSQAEIDQALKLVDYTKVKFNDKEQTVYLEEKGMQLDLGAIAKGFITDEVVKVLKDNGVTTAIVDLGGNVYVLGHSPRGKDMDWTVGIQDPNKARNTVLGQVKESNKTLVTSGIYERYLKVDGKTYHHLFDRETGYPFDNDIAGVTIITDKSIDGDGLSTAVFSMGVKKGLEYVESLKGTDAIFVTKDDKVYISKDIEGNFEIGKDSGYTMGNRADLKEGGSHHHHHH | soluble |
| GMEQHQVWAYQTKTHSVTLNSVDIPALAADDILVQNQAIGINPVDWKFIKANPINWSNGHVPGVDGAGVIVKVGAKVDSKMLGRRVAYHTSLKRHGSFAEFTVLNTDRVMTLPDNLSFERAAALPCPLLTAWQAFEKIPLTKQREVLIVGFGAVNNLLTQMLNNAGYVVDLVSASLSQALAAKRGVRHLYREPSQVTQKYFAIFDAVNSQNAAALVPSLKANGHIICIQDRIPAPIDPAFTRTISYHEIALGALHDFGDRQDWQILMQQGEALLTLIAQGKMEIAAPDIFRFEQMIEALDHSEQTKLKTVLTLNE | soluble |
| AIAAELGLNEHHQNEVINYMRFARSKRGLRLKTVDSCFQDLKESRLVEDTFTIDEVSEVLNGLQAVVHSEVESELINTAYTNVLLLRQLFAQAEKWYLKLQTDISELENQELLEQVAEFEKAEITSSNKKPILDVTKPKLAPLNEGGTAELLNEEILRLQEENEKLKSRLKTIEIQATNALDEKSKLEKALQDLQLDQGNQKDFIKAQDLSNLENTVAALKSEFQKTLNDKTENQKSLEENLATAKHDLLRVREQLHMAEKELEKKFQQTAAYRNMKEILTKKNDQIKDLRKRLAQYEPED | soluble |
| FIKLITSAKKRVWIQTPYLVPDDSVLAALKVAAASGVDVKIMIPDKPDHPFIYRATQYYGRLLMKENIEILIYNGGFLHAKTMIMDDEVCTVGSANQDIRSYKLNFEANAVLYDKKIIDQLEAIFLEDRKKCTTMTPEVVRDM | not soluble |
| MSVEFYNQNAQQFFSSTVEVDSTSLLDQFVPYLPQGGLVLDAGCGSGRDSKRFLDMGYQIDAFDASAPLAALAEELLNQSVTVTTFENFTSSKRYDGIWACASLLHVTRESLPETFAHLAKMLKCGGAFYCSFKYGQDEVERDGRRFTNCNEVLLNQLLTSSPLAIDKLWVTQDLRAGREHEQWLNAILIKRLEHHHHHH | soluble |
| MGSDKIHHHHHHMTVKSSTSSLHDRSSTSTSLMPGFADPVFDAQAVFRASLLATAYPGRVVPVDRALASPRPFSSATAALCLTLMDFETLAWLDRQAASGEAVAWLRFHCGLPVTDDPMKARFAVVTDALTMPRLVEFHPGDVEYPDRSMTLIIQVPSFNEGPATTWTGPGIKTSARVSIGGLPFWYWSDWEMNRELYPRGIDVIFTNGNALVGLPRTIAVEA | not soluble |
| MSRFTDKVAIITGSSNGIGQATARLLASEGAKVTVTGRNAERLEETKNILLGAGVPEGNVLVVVGDITQESVQENLIKSTLDKFGKIDILVNNAGAGIPDAQGKSGVNQSIDTYHKTFELNVQSVIEMTQKARPHLAKTQGEIVNISSIGAGPAAQVASPYYSIAKAALDQYTRTAAIDLVPEGIRVNSVSPGAVSTGFSAVSRGLTEEKSKAFYDYLGAQRECIPRGFCAVPEDIAKVIAFLADRNASNYIIGQTIVADGGTSLILGAHAHGAKMMQAVFKEL | not soluble |
| MPMTLGYWNIRGLAHSIRLLLEYTDSSYEEKKYTMGDAPDYDRSQWLNEKFKLGLDFPNLPYLIDGTHKITQSNAILRYIARKHNLCGESEKEQIREDILENQFMDSRMQLAKLCYDPDFEKLKPEYLQALPEMLKLYSQFLGKQPWFLGDKITFVDFIAYDVLERNQVFEPSCLDAFPNLKDFISRFEGLEKISAYMKSSRFLPRPVFSKMAVWGNK | soluble |
| MSLKCEYLIIGSGIAGYNALKELLQIKPNSRIIMITSDKYYPYDRPPLSKDYLKGKLEKDMLFFESDDFYKRDNLEVMLNKSVERIDANLKEAILNDGSVISFDKALISTGGRPRRLNIPGSENALYLRSLDDADRIREAASKGKNALIIGAGFIGVEVASSLITLGVKTTVVEVMPYIWNTFVDEKVSRVIQQYLESKGINFILNESVKEIQGKIATTSSGRKIEADMFLIAVGISPNVELAQRSGMQVDNGIVVNEYLETSARDIYAAGDIANIFDPREGKRKRIEHWNNAEYTGKLAARNMAGSREAYNFISSIWSDIFDLHIESAGETRNYDEYIIRGKFELERPRFSVIYLKGGIIKGYLAINRNVKEIIALNKLIQKQADVSSKRDKLADESFDLQKLLIEGHHHHHH | soluble |
| MAHHHHHHMPFVDHNKYKIQREDLPALPHFTDFNDPRFCGTNNKQKNGILAYYQWLHCVGNWGEEHSMCKKMRWYVERMMQEVWLEKWEEKRALGHFDHVLLYGVKPWKDFEPLYQPVKTNRKGAYEFWLDRDFEPLYDADASDFCEKAPILHDIFVKGKKPVYDE | not soluble |
| MTGIREGEKELSLLGSKTEYRNDYAPEVLEAFTNKHQENDYWVRFNCPEFTSLCPITGQPDFATIYINYIPDVKMVESKSLKLYLFSFRNHGAFHEDCVNIIMKDLIALMQPRYIEVWGDFTPRGGISIVPFCNYGKPGSRYELLAEKRMETHH | not soluble |
| MSLEMLGIDVVIPDISYLIERADRVKAIFLTHGHDENIGGVFYLLNKLSVPVYGTKLTLALLREKLKQYGHNRKTDLREIHSKSVITFQSTKVSFFRTIHSIPDSVGVSFKTSLGSIVSAGDFKFDQTPALNQTCDIGEIAKIGNSGVLALLSDSANVERPGYTPSEAAVSGEISDALYNSQNRVIIAVFASNINRIQQVIHAAAQNGRKIAVAGKNLQSVLQLARKLGYIEADDELFISVQDVKKYPKREVAIITAGSQGEPLAALTRMANKAHKQLNIEEGDTVVIASTPIPGQELIYSKTVDLLARAGAQVIFAQKRVHVSGHGSQEELKLMINLLKPKYLIPVNGEYRMQKAHSKIAEETGMKRSDIFLIEKGDVVEFRGQNVKIGDKVPYGNILIDGLGVGDIGNIVLRDRRLLSQDGILEGHHHHHH | not soluble |
| MSLMPFHLAIPVHDLPAARRFYGEVFGLSEGRSAEHWVDFDFFGHQLVIHQHPQTDSQRHAGSNPVDGHDVPVPHFGVVLAWDDWHALAERLQQRGTRFVIEPYIRFKGQVGEQATLFLFDPCGNALEFKSFRDMGQLFAKLEHHHHHH | soluble |
| GVDGCGSVTLAYDGFNVNLLHSKVSDSLIPSEFQGEQGSVLVDMIATGRGVERILRGEEKETLTLPQTENHMFYEAEAFAKQLKLGVIDEQMKQRSLTVAKVLTEVRKQTGVVFPADQ | not soluble |
| MSLVDTEIWLRLMSISSLYGDDMVRIAHWLARQSHIDAVVLQQTGLTLRQAQRFLSFPRKSIESSLCWLEQPNHHLIPADSEFYPPQLLATTDYPGALFVEGELHALHSFQLAVVGSRAHSWYGERWGRLFCETLAKHGVTITSGLARGIDGVAHKAALQVNGVSIAVLGNGLNTIHPRRHARLAASLLEQGGALVSEFPLDVPPLAYNFPRRNRIISGLSKGVLVVEAALRSGSLVTARCALEQGREVFALPGPIGNPGSEGPHWLIKQGAILVTEPEEILENLQFGLHWLPDAPENSFYSPDQEDVALPFPELLANVGDEVTPVDVVAERAGQPVPEVVTQLLELELAGWIAAVPGGYVRLRRACHVRRTNVFVEGHHHHHH | soluble |
| MSLVAFHEVRFPLRLALGVSGGPVRRTDIVNLSNGRENRNQRWRNARRAYDAGSGIRSVADLYEVLAFFEARRGEMYGFRFRDPVDFKSCPPGETPAATDQRIGTGDGVVTGFQLVKTYADAGGSFSRRIDKPVEGSVIVSVEGVKAAPTDLSVDHATGMVIFRAGRAPPTGAVIRAGFEFDVPVRFAIDRIDINVTAFEAGRIPSIPLMEILPEGHHHHHH | soluble |
| GPGSMADNEEVPPSGPRMTREETDELVRRLYDQQMERAARREEERQRQLARPFCSSRRIKKDEEENLVRRIYDVQRERFQQSKEERERRLTLELQSKDKKLPESEIQDQVDRIYNQEVAKSKARREELQKRYLPEVPPKTIGKKQLKESVERLFRVDYVKRDEELFKKHVYPYDPPTTKISRTDVEAMANRLSRRGS | not soluble |
